{"source": "patent US20090098549", "about": "“SELEX AND PHOTOSELEX” (SOMALOGIC, INC., published 2009)", "binders": {"B1": {"name": "2092-68-6 (ssDNA)", "DNA": "ATATATATGAGTGACCGTCTGCCTGAGCUGCGGUUGAUGAUAUACUUCGCUUUCACUGCUCACAC", "modifications": "X=ANA-dT, Z=BzdU"}}, "target": "beta-catenin (UniProt P35222 P35222:2-781)", "sequence (P35222 2-781, one chain of several)": "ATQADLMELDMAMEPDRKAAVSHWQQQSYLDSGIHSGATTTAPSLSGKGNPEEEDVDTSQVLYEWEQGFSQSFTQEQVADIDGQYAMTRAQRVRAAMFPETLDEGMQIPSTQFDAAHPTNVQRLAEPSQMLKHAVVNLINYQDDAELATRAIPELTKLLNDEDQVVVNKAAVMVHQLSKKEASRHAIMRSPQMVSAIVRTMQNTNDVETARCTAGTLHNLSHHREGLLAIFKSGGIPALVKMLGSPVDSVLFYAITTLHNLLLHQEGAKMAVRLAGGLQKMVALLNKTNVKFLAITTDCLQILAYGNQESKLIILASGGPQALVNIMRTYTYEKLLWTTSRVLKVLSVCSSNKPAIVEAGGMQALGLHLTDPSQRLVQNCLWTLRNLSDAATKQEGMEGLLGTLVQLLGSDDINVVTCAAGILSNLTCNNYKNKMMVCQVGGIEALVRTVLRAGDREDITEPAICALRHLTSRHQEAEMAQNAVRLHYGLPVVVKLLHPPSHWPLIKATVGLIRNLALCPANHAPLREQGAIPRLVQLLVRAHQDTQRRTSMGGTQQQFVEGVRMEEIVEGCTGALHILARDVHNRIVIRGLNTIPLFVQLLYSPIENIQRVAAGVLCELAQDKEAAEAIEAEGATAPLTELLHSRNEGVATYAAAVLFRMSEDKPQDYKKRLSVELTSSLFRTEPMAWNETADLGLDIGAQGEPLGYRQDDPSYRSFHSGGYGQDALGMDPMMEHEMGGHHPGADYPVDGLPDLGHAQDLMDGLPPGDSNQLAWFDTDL", "assay": "photocrosslink returned to full activity without 3' fixed region", "details": "tags: NHS-PEO4-biotin or His tag (assay used TALON beads); label: 32P", "protocol": "Radiolabeled aptamer (100 pM) was denatured and renatured as described above, with, or without a 100-fold excess of unlabeled 3′ primer. The samples were incubated with or without 10 nM β-catenin protein in SB17 for 30 minutes at 37° C., after which complexes were crosslinked by irradiation with an OAI Hg lamp (Optical Associates, Inc. model 0131-0003-01, 500 W, with 310 nm mirror set) for 10 minutes at 37° C. Samples were mixed with 2× formamide loading buffer, heated for 10 minutes at 70° C., and loaded on a 10% polyacrylamide TBE-urea gel. Phosphorimages were collected with a FUJI FLA-3000 FIG. 7A. Crosslink activity was determined for each sample by quantifying the free aptamer and aptamer:protein signals with FUJI ImageGauge image analysis software and calculating the percent of total DNA crosslinked with target protein and subtracting the percent crosslinked without protein."}
{"binder": "B1", "values": [{"measurement": "binding result", "result": "binds"}]}
